Reference: PMC2788937 (Science signaling, 2009)
No end group written: not given here.

Key:
GST-β2AR(330–413) = GST-β2AR(330–413) (human, UniProt P07550 330-413); test: pull-down
[1] = target: FLAG-tagged human β2-adrenergic receptor (human, UniProt P07550 1-413); test: pull-down

binding result (GST-β2AR(330–413))	binding result [1]	Binder
binds		EAISFLLSLIDRLVLY (also: FITC label, position not given here) [FITC-labeled peptide derived from human EGLN3(89–104)]
	binds	LRGDQITWIGGNEEGCEAISFLLSLIDRLVLYCGSRLGKYYVKE (domain or fragment, human, UniProt Q9H6Z9 73-116, looked up) [GST-EGLN3^(73-116)]
